Laboratory results from the DeepSol protein solubility set.

Experiment: soluble on expression in E. coli; label from the status in PepcDB or PDB records

| Sequence | soluble on expression in E. coli |
| --- | --- |
| MGSDKIHHHHHHMLKPSDKWSWYFSDSEGYLMLNLGDDMLFRTNLSRNLLVDCAFIENPFTVDDASDFQLYKEHIACLPLSEPRKAELALYCVAAKRFHKPVQPKSWFFDVQGTGYTPQQGQLISLRNSLNSGIFIALEVGENATLCAYSDLVSFALNGSKTLEFGQVIKVMHDRMSDVNTLLYTPQMAMVS | not soluble |
| MACERLGGQSGAADVDAAAPAMAAVNLTLGFAGKTVLDQVSMGFPARAVTSLMGPTGSGKTTFLRTLNRMNDKVSGYRYSGDVLLGGRSIFNYRDVLEFRRRVGMLFQRPNPFPMSIMDNVLAGVRAHKLVPRKEFRGVAQARLTEVGLWDAVKDRLSDSPFRLSGGQQQLLCLARTLAVNPEVLLLDEPTSALDPTTTEKIEEFIRSLADRLTVIIVTHNLAQAARISDRAALFFDGRLVEEGPTEQLFSSPKHAETARYVAGLSGDVKDAKRGN | not soluble |
| MGSDKIHHHHHHMESIVSWPKPRGLARHSGRKAMSSLSSLARIALSLSLPSGLLDRGPSLRGTKFLAKAALKARFGGASQPFQMVNVGACDGALFDDVTPWLHRIAGARAMLVEPIPYNQKRLRANYPDKERFIIEPVAVTKTKGTITVHTFDAAALEAGTLPIEFIGCSSVTDTNLMSGKNAWGEADANFNKFAPHLRDIEVPSETLQTLLDRNGISHIDAFLVDCEGADWMVFEQLDLKRYRPGLIKVEVGALPATEIGQVVVKLKTAGYQVGFQAEDVWAFA | not soluble |
| MGSDKIHHHHHHMLQGKVSVIVPAYNAARLLERCVRSITGQTYPALEVIVVDDGSKDDTGKIADQLAAEDSRIRVVHKTNGGVSAARNDALKLVEGEWITFVDSDDYLEPDFLRSLLDGEVADLVIGGYHTVGANEIPSANYPTDTAHSPEAIKRALEARLTDMTFLCPWGKLFRTSLVRSLRLIFNTEMKVGEDVVFVWSYLAHCSSLAFKQGQGYDYYTEPGADFKYALDETVSLQTIERILGVLDGLKRNFGMDTEHARCHVLNYYIWLFKLYVNRNYLLRDLARMKNFFYYPLILDYYKTYRRTSKDKLLVYLLLKLRLSGVLYLMIKLYY | not soluble |
| MGSDKIHHHHHHMINQVYQLVAPRQFDVTYNNVDIYGNHVIVRPLYLSICAADQRYYTGRRDENVLRKKLPMSLVHEAVGEVVFDSKGVFEKGTKVVMVPNTPTEQHHIIAENYLASSYFRSSGYDGFMQDYVVMAHDRIVPLPNDIDLSTISYTELVSVSYHAIQRFERKSIPLKNSFGIWGDGNLGYITAILLRKLYPEAKIYVFGKTDYKLSHFSFVDDIFTVNQIPDDLKIDHAFECVGGKGSQVALQQIVEHISPEGSIALLGVSELPVEVNTRLVLEKGLTLIGSSRSGSKDFEQVVDLYRKYPDIVEKLALLKGHEINVCTMQDIVQAFEMDLSTSWGKTVLKWTI | not soluble |
| MKAERILGALYGQALGDAMGMPSELWPRTRVKAHFGWIDRFLPGPKENNAACYFNRAEFTDDTAMALCLADALLECEGNIDPEIIGRNILAWAERFDAFNKNVLGPTSKIALNAIRDGKPIAALENNGVTNGAAMRVSPLGCLLPPTNLTAFIAEVALASSPTHKSDLAVAGAVVVAWAVSRAVNGDTWQSIADSLPAVAHQAQTARITTFSASLSARLELALNIVRHADGVESASEQLYQIIGAGTSTIESVPCAIAMVELANTDPNRCAVLCANLGGDTDTIGAMATAICGALHGVSAINPQLKQTLDEVNQLDFARYAVALASYRQRREALLEHHHHHH | soluble |
| MGSDKIHHHHHHMNRKLIQIDQLKNQLTQYRPLSESEVKRLREEFIIESSYNSNAIEGNTITLRETVLILKEGMTIAEKPLREHLDIIGFKDAFNYIYELVANNEPLSERTIKDIHSLVLMNNAEGRGVYRKIPVRILGAENEPTAPYLIAEEMQSLIEKYQQKLTALHPIEAISWLHLAFESIHPFIDGNGRTGRLLINFELLKHGYLPVDIKFTHRANYYQCFDDFHKNQQDISRLVELISRYELTELERYLAILEQRT | not soluble |
| MKKHTLALCLAAILAPAAHAAEIKVEDLTWKAITFGQSTDMNFGSTILPEKVGVNQVTVNGEAVAAGKLASTFTIESRGGKLANSHEGLTFYYTELPTDVNFTLSADVVLEQLGPETGATPNRQEGAGLMVRDILGAERLVPQPEGHEEFPSASNMVMNLMRSHTRANDGMTNINASFREGVYQPWGTPGNRLSRVDYVEGVPYGTAETYRMTLTRTNDGFKVSYRNGEKFVEQAVKGANANIVEMQNSDSQYVGFFASRNAKMTVSNVDLQLAAADTVDAPKYAAKQGELVFQIASSPRSATKEYPVQARANYSGEFEVLHNDKVVAKQTVTAGELFSQWLTLDSGANQMEVRFTAIDGPNKETQAHRYSVDVVSLPDPMTL | not soluble |
| MKLFERIHQDTEIRQIYDAIGQMEDEEAGWAYHNWFHVTNVVAMTEMILKQLAVSEEYLEAAKIAALLHDVGALQGKAGHALRGKQFAEAYFRKQKICLPYQEEILSSIENHSNGFDSEELMTLALIISDKLDITTSRVAKAGYFVPGMRQFQFLKKIEIMLSEQEVCVSFTAEEELDLEELNAFYFMPKVFKAIAAFSGKIQRRPIVLLNNQEWPVPKQKNPSTVHLEHHHHHH | soluble |
| MKKWLLAAGLGLAMVTSAQAADKIAIVNMGNLFQQVAQKTGVSNTLENEFKGRAAELQKMETDLQSKMQRLQSMKAGSDRTKLEKDVMSQRQTFAQKAQAFEKDRARRSNEERNKLVTRIQTAVKKVANDQSIDLVVDANTVAYNSSDVKDITADVLKQVK | not soluble |
| MIEIIETGPFNTVQDLGRPGYRDVGVSAGGAMDPLAVKIGNILLGNFDDAAVIEVQTFPFKMRFEARAAFAVTGADGQMLLDGRELLPWCTHVAAEGQVLELKQPPQFARAYISLTGGVDVPVLMGSRSTALRGGFGGNAGRPLARGDRLKIGTVADALPLPASGIAVIEPATALRDVFAPPIEGILQIRAIPAGEHGLFASDGEAFWSQTWRISSRSDRTGYRLSGEPIKPTETIEMRSHGVVPGVVQVPPGGEPIIQMSDANTAGGYPKVAGVIECDLWRLGQARIGSRLQFVRSTHAEARVVEQAVASYLEDIRQTSHMVKRALKAMAAAALEHHHHHH | not soluble |
| MKYDLIIIGSGSVGAAAGYYATRAGLKVLMTDAHMPPHQQGSHHGDTRLIRHAYGEGEKYVPLVLRAQTLWDELSTHNEEPIFVRSGVVNLGPADSAFLANVARSAQQWQLNVERLDATALMTRWPEIRVPDNYIGLFEADSGFLRSELAITTWLRLAREAGCAQLFNSPVSHIHHDDNGVTIETSEGCYHASKALISAGTWVKALVPELPVQPVRKVFAWFKADGRYSTKNRFPAFTGEMPNGDQYYGFPAENDELKIGKHNGGQLIQAPEERKPFAAVASDGAEAFPFLRNVLPGIGGCLHGAACTYDNSPDEDFIIDTLPGHENTLVITGLSGHGFKFAPVLGEIAADFALGKTPSFDLTPFRLSRFSQ | not soluble |
| MGSDKIHHHHHHMIEQQMPFRRILLTSDTFQILKEGQIISTFNKCGIFYCQRGSVEVSLEGCHYHIKPGDVYIYMASTLVHLLHKSEDAEGIMVEVDFYYILPIVNKVINVESQLFMRKNPCVSLSGEQCAHFEYLLNNLWDRINAEDCQKENVQYQHLKLELIKSMGQTICYEILNMYFTNQPLQPLQQGKKDVVFQNFMLSLFRFYRKERDVSFYARMQHITPRYFSAIIKEKTGDSALQWIVRMVITEAKQLLEESDLSIKEIADQLNFPTQSFFGKYFKQYVGVSPKEYRNNAATTRIKR | not soluble |
| MGKSLDEQFEAAVWIINALPKNGPIKTSINDQLQMYSLYKQATSGKCDTIQPYFFQIEQRMKWNAWNQLGNMDEAEAKAQYVEKMLKLCNQAEAEHNLMEFLSDPTIADLLPKQNQLREHFATLGRTTVKGFEGETVEINGVSISF | not soluble |
| MLGNIAEISNPNERRQAVKALVSAVKSDEDDSVRAAATDALYQRGEDAFDYLVAELAEMGGSEATERTATTLLTEWLSADHLEFRMVAATALGERGATAAVPDLVRALTDPAPRVRTRAAQACGRLSDPRVVPPLSERLSDGRQQVREAAANALGAIGTDRALAELVPVTQADEEGLRLIAVDELGQFGSVKPVVVLVDALDDDSTTVQRAAMLSLLELLTTASTEELELIRGTVVDELARADVQATVPALLDIAADGTRRRYRQTAIWLLSRITGDRYRSEVIDCLLSTLDKPDEETAQLAEAVLPELRSPELEKRLRVYLSRERGSEEARSRAQAVLDEICDGSSGELVTTGVDYTYVDSPADYTNQHSSRD | not soluble |
| MKEHQKLEHPAQVKTKSFEDAAFEMLSTVSPIKLPRDEIPFDSVREIVLGEIIKSKQRNSRSSANDRRNMDDLLDEAPSSSSSSSHVGESSSSNLDRGTMTDEGCTDIGGAPRPIAARLYGDCTRSSSTSTSSAAGPSCSSDVATVENSKKKPLNYREKRLAEIRAARLKKYRENAEIVEFKCEENCLAEVFTKYYLELLDDEAGPANLYYRVVESLDVYFRVKTWESNCPKLLCEFLCDHILKTCQQLNELHESKNMTDEWRARECQIQVLLTLHVYVVTDERRWLDEAINKLRMIYISVGAERLRTFVEEPVTDIYLELIGDGLATIYDELCINLPADLIQYDTGLFKMTETDDSLVVKRRNGAANRLEQMLNETSADLGVGGVERARRTSTEAAAPQRRSLKRRNIEDVPKELLSPARTTRTSRSDYKHFFVEDTPDEKYQKKTTKVEEIEMNEEEDGEIGAESTSKRKTVTIKEEIDEEVKQTPMAKLRASAKLNGKRCSKRLSDLVKLSEERTQVTKKARENLNKLLEKANTPIRSVTRPIRKSVLFGSAGSMSSSPATTKCARGTSSRTSLLNKFSEMEEKKKSPLAVDTSDGHIIHTPSSASESTTPVLRDRATRRRTTRFNDKNYQPNVLKQEMHDPEFDAMESSMASPSKRTTKNSSTAASASTTPVSKWTDRQLKRQLGLTREDLNRYREAMLTTGERNRNKNVKINWESAQVNRAGRVKGAGASEDGTPIFGIARRNVRTMICHVLLNDTNPDTSFDWNKVKFDDFCGKPRTRQFQSLIQKPEAYMESLKQKYIESRVSSAKRMRSNDGASTSSRPAKRRRSNASSPKKQTASSSASSTKSLKSPVKLEAFDDFGFESEADD | soluble |
| MSLNASEAVYKAILDSGVDFVTSVPCANLKTVLNYLNDNKDIQHIPVTREEEGIGVCAGAYLGGRKTALLMQNSGLGNSINAIGSLVKVYKIPILIIISHRGDLKEKISAQIPMGQWTKKLLETVEIPYFSPKTPDEAYKLIKDASELSINMEYPVAILLDALYWEHDKEGHHHHHH | soluble |
| MGHHHHHAYTLSKSGKEKEEVDEILEEEAEVDELKSPESVVQLLHIDPIEFEFGYGLIPLADANQGGDLLDRIVMIRRQLALELGLVIPVVRIRDNIALQPNEYRLKIKGNEVAKGELLLDHYLAMSPTPEDDLIEGIETVEPSFGLPAKWISEAVKDEADMLGYTVVDPASVVSTHITEKIKQHAHELIGRQETKQLIDHLKESYPVLVEEVTPNPLSVGDIQKVLAKLLKEKVSIRNLVTIFETLADYGKLTTDSDLLTEYTRQALAKQITAQFAKENEVLKVVTCSGRVEKAIADGVQQTEHGNYLSLEPDISESIVRSVAKEAEQLSLRQETAILLCSPPVRMYVKQLLERYFPDLPVLSYNELEANVEVQSIGVVDI | soluble |
| MGSDKIHHHHHHMSRVETIINELSLIASNPRKAMEDYKKETGKGAVGIMPVYAPEELVHAAGFLPMGIWGGQKSISKARTYLPPFACSIMQSVMEMQLEGVYDDLEAVIFSVPCDTLKCLSQKWKGKSPVIVFTHPQNRKLEAANKFLVEEFKLVREKLEKILNVKITDEAINNSIEVYNENRKVMREFSDIAGQYSKTISAAARHAVIKARFFMEKSKHTAMVRELINELKAMPAEECGKKVVLTGIMAEPNEVLDILTENGFTVVADDLAQESRQFRLDVPAGTDPLYRLAEWWQQFDGCALATNVKKPRGQMLMDMVKKYDADAVIVCMMKFCDPEEFDYPIYYSQFEEAGIKSLYIEIDQESTSFEQIKTRVQSFGEML | not soluble |
